Assay results reported in paper PMC3907296, “How a Retrotransposon Exploits the Plant's Heat Stress Response for Its Activation”.

Target: HSFA2 (Arabidopsis thaliana, UniProt O80982 1-345)
Experiment: competition EMSA; unlabeled HRE fragment, 200-fold excess, competes with labeled LTR; 10 mM Tris pH 7.5, 1 mM EDTA, 0.1 M KCl, 0.1 mM DTT, 5% glycerol, 0.01 mg/ml BSA; RT 30 min; 5% native PAGE, 0.5x TBE
Details: protein: recombinant; tags: C-terminal 6xHis (pET-24b, NdeI/XhoI); chain copies: 3; blunt

Chain of HSFA2 (O80982 whole entry, the tested form may be a part): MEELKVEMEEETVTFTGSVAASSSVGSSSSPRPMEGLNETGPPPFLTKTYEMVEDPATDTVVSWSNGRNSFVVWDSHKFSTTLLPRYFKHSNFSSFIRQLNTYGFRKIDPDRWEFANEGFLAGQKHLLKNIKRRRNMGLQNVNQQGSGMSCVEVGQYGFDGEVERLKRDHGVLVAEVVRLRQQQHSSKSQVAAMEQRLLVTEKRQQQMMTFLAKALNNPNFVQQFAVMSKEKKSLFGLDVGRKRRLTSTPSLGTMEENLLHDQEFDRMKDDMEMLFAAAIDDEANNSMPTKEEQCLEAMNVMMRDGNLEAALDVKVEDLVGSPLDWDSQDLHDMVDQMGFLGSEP

B1: ONSEN LTR complete HRE, 51 bp (dsDNA)
DNA 1: CCACCTCCTTAAAAGATTCTAGAAATTTTCTAGAATCATCTTCCACCTCCT
DNA 2: AGGAGGTGGAAGATGATTCTAGAAAATTTCTAGAATCTTTTAAGGAGGTGG
B1: binds.
